# B1: rK5: recombinant kringle 5 fragment of human plasminogen (residues 450-543), expressed in E. coli or yeast (protein)
# chain: LLPDVETPSEEDCMFGNGKGYRGKRATTVTGTPCQDWAAQEPHRHSIFTPETNPRAGLEKNYCRNPDGDVGGPWCYTTNPRKLYDYCDVPQCAA
# What was measured:
# caspase 7 = assay: Caspase 7 activity in HT1080 cells; type: cell-based, human; settings: rK5 100 nM and hypoxia, overnight
# Description: FIG. 16 is a graph showing the effect of rK5 and hypoxia treatment on caspace 7 activity in HT1080 cells. HT1080 cells were plated in 48 well plates. rK5 at 100 nM was added to the plates. HT1080 cells were incubated overnight in hypoxic conditions (95% N2, 5% CO2) compared to controls, which were incubated in 5% CO2. Caspase 7 activity in cell lysates was detected by the activation of an ELISA fluorescent substrate (R&D Systems).
# GRP78 (bovine brain) = molecular target: T1, GRP78 (bovine brain) (Bos taurus, UniProt Q0VCX2); assay: Ultracentrifugation binding of I125rK5(dog) with GRP78; settings: 1 nM I125rK5(dog) + 1.5 nM GRP78; peptides 100 nM, rK5 1 nM
# T1 construct: from tissue; host or cells: bovine brain
# Description: Ultra centrifugation with 50,000 MW cut off filters was used with iodinated recombinant dog K5 (I^125rKS(dog)) and GRP78 (bovine brain). The GRP78 and I^125rK5 (dog) were incubated for 1 hour at room temperature. The solution was then transferred to ultracentrifuges and spun at 10,000×g for 2 min. The top chamber contained GRP78 (mw 78,000) and I^125rK5 (dog) that bound. The top and bottom solutions were counted for I125. Column A: 1 nM I^125rK5(dog). Column B: 1 nM I^125rK5 (dog)+1.5 nM GRP78. Column C: 1 nM I^125rK5(dog)+1.5 nM GRP78+100 nM N-terminal K5 peptide, LLPDVETPSEED. Column D: 1 nM I^125rK5(dog)+1.5 nM GRP78±100 nM active site K5 peptide PRKLYDY. Column E: 1 nM I^125rK5(dog)+1.5 nM GRP78+1 nM rK5 (unlabeled). The GRP78 bound to the labeled rK5 causing its retention on the top of the filter.
# A549 = assay: Tumor cell proliferation, A549; type: cell-based; settings: A549, 72 hours
# Description: (§1) Cell Proliferation Assay. The effect of rK5 and rK5 peptides on endothelial cells were assessed using a proliferation assay with 1% BSA and 3 ng/ml bFGF in serum-free media. Relative cell numbers in each well of a 96 well microplate after incubation for 72 hours in the absence or presence of inhibitors were determined by using the AQueous cell proliferation assay (Promega, San Luis Obispo, Calif.). For all other cell lines tested for proliferation, minimal growth media was used (Cao, Y., Ji, R., Davidson, D., Schaller, J., Marti, D., Sohndel, S., McCance, S., O'Reilly, M., Llinas, M., and Folkman, J. Kringle domains of human angiostatin. Characterization of the anti-proliferative activity on endothelial cells. (1996) J. Biol. Chem. 271, 29461-29467). Results are presented as the percent inhibition of control cell (bFGF-induced) proliferation.
# tumor cell lines = assay: Apoptosis of various tumor cell lines under hypoxia; type: cell-based; settings: 500 nM rK5, hypoxia overnight; exceptions Lewis Lung and PC-3
# Description: (§2) FIG. 15B is a graph showing the effect of rK5 on induction of apoptosis in various tumor cell lines tested under hypoxic conditions. Cells were plated in 96-well plates overnight. Half the plates were put in hypoxic chambers overnight at 37° C. with and without 500 nM rK5. Increased apoptosis was shown by an ELISA technique that measures the number of nucleosome fragments. The apoptotic index was calculated from the apoptosis rate of control cells (without K5 and with or without hypoxia). The samples were run in quadruplicate.
# LNCaP = assay: Tumor cell proliferation, LNCaP; type: cell-based; settings: 72 hours
# Description: as §1
# [1] = system: bovine endothelial cell proliferation; settings: previously reported (Cao et al. 1996); read-out: IC50, inhibition of bovine endothelial cell proliferation; cited from earlier work
# [2] = system: HT1080 human fibrosarcoma cells; assay: Apoptosis of HT1080 cells under hypoxia; type: cell-based
# Description: FIG. 15A is a graph showing the effect of rK5 on HT1080 human fibrosarcoma cells under hypoxic and non-hypoxic conditions. […] cells were plated on slides overnight with complete medium. Control slides were put in the incubator at 5% CO2 and 37° C. The other slide of cells was put in a hypoxic chamber with 95% N2, 5% CO2 at 37° C. for 24 hours. GRP78 on the cell surface was detected by IHC analysis with a polyclonal antibody to GRP78 conjugated to horseradish peroxidase. The GRP78 was visualized with the DAB reagent displaying a brown color.
# as §2
# FIG. 15C is a graph showing the effect of rK5 on hypoxia-stressed HT1090 cells transfected with an siRNA and a scrambled siRNA to GRP78. The transfected cells were plated in 96 well plates and placed at 5% CO2 and 37° C. rK5 (500 nM) was added to the cells and half were incubated in an hypoxic chamber with 95% N2, 5% CO2 at 37° C. and half were incubated at 5% CO2 and 37° C. for 24 hours. Apoptosis was shown by an ELISA technique mentioned above. The samples were run in quadruplicate.
# [3] = system: GRP78 siRNA transfected HMVEC cells; assay: 3HK5 binding to GRP78 siRNA transfected cells; parameters: species or system human; settings: compared to scrambled siRNA transfected cells
# Description: FIG. 13 is a graph comparing the effect of binding of rK5 to GRP78 siRNA transfected HMVEC cells and scrambled siRNA transfected cells. GRP78 siRNA or scrambled siRNA transfected EaHy cells were grown in 96 well plates. The media was changed and ^3HK5 in PBS was added to the cells. The cells were incubated at room temperature for two hours then washed thoroughly. Cell counts were measure for bound ^3HK5. Data points are the average of triplicate studies.
# In selected studies, GRP78 siRNA- or scrambled siRNA-transfected EaHy cells were grown in 96 well plates. The media was changed and ^3HK5 in PBS was added to the cells at various concentrations. The cells were incubated at room temperature for two hours then washed thoroughly. Cell counts were measured for bound ^3HK5 as described above. Data points were calculated from the average of triplicate samples.
# T1 sequence (Q0VCX2 20-655): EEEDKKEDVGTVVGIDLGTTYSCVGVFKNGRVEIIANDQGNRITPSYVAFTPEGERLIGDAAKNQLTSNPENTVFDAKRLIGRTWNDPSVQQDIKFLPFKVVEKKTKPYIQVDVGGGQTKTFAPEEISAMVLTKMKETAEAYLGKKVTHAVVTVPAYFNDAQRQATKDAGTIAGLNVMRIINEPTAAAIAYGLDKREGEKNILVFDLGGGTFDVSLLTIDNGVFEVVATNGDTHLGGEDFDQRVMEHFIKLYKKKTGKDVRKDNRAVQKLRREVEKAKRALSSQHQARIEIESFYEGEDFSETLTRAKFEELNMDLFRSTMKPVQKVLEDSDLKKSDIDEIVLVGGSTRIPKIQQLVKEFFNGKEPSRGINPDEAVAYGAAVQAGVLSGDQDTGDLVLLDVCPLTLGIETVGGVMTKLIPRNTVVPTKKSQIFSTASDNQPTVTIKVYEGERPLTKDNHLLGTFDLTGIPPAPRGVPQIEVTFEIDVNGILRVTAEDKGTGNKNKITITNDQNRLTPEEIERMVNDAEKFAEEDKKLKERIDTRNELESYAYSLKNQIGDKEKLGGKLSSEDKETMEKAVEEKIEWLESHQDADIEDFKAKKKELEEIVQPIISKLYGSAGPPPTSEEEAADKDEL
molecule,measurement,setting,value
B1,caspase 7 activity,caspase 7,significant increase in caspase 7 activity
same,inhibition of I125rK5(dog) binding to GRP78,GRP78 (bovine brain),inhibited
same,IC50 values for cell proliferation,A549,>100 µg/mL
same,induction of apoptosis in tumor cell lines under hypoxic conditions,tumor cell lines,induced apoptosis in 8 out of 10 tumor cell lines
same,IC50 values for cell proliferation,LNCaP,>100 µg/mL
same,IC50,[1],~50 nM
same,activity on hypoxia-stressed GRP78 siRNA transfected HT1080 cells,"[2]; hypoxia, GRP78 siRNA transfected, rK5 500 nM",significantly eliminated the activity of rK5
same,increase in apoptosis under hypoxic conditions,"[2]; hypoxic conditions, within 24 hours",greater than two-fold increase in apoptosis
same,effect on cellular apoptosis without hypoxia,[2]; without hypoxia,no significant effect
same,binding to GRP78 siRNA transfected HMVEC cells,[3],very low

# — US20050053993A1, “Uses of an endothelial cell receptor” (priority 2002, published 2005)
